Reference: PMC6479807
One block for each substance: values may come before it.

Legend:
[1] = molecular target: PsSYM10 extracellular domain (PsSYM10-ECD) (Pisum sativum (pea))
[2] = molecular target: PsSYM10 extracellular domain (PsSYM10-ECD) (Pisum sativum (pea)); remark: listed apart in the source
[3] = molecular target: PsSYM10 extracellular domain (PsSYM10-ECD) (Pisum sativum (pea)); remark: listed apart in the source

Substance: PsK1 extracellular domain (PsK1-ECD), wild type (domain or fragment)
hypersensitive response (cell death) in N. benthamiana leaves 48–72 h after infiltration, on co-production of full-length PsSYM10-3xFLAG and PsK1-6xHIS; percent of leaves with HR [1]: 90%

hypersensitive response in N. benthamiana leaves on co-production of full-length PsSYM10 and full-length PsK1-6xHIS with P169→S; percent of leaves with HR [2]: 53%
Substance: PsK1-ECD with P169S replacement in LysM3 (as in the k1-2 mutant line) (domain or fragment)

hypersensitive response in N. benthamiana leaves on co-production of full-length PsSYM10 and full-length PsK1-6xHIS with the LysM1 replacement (k1-3); percent of leaves with HR [3]: 93%
Substance: PsK1-ECD with S59F replacement in LysM1 (as in the k1-3 mutant line) (domain or fragment)
